Drawing on article PMC5718613, this text covers β-galactosidase activity (two-hybrid signal) for one substance.

This test has as its target S. aureus flotillin (FloA), fused to T25 or T18 fragments of an adenylate cyclase (S. aureus). As to the kind of experiment: two-hybrid; bacterial two-hybrid in E. coli BTH101; FloA and T7SS membrane proteins fused C- and N-terminally with T18 and T25 fragments of adenylate cyclase; X-Gal plates (48 h, 30°C) and β-galactosidase activity in Miller Units; a 700 Miller Unit threshold defines positive and negative signals.

Sequence of S. aureus flotillin (FloA), fused to T25 or T18 fragments of an adenylate cyclase (S. aureus) (A6QHB6 whole entry, the tested form may be a part): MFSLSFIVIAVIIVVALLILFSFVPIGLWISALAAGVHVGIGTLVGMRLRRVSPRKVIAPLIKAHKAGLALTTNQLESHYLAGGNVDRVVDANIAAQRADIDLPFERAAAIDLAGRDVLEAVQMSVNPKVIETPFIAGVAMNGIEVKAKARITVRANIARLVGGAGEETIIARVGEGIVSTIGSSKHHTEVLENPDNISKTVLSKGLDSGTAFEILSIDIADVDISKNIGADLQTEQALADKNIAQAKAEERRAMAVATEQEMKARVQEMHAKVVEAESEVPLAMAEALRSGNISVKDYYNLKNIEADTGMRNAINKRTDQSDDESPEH

Substance “EssB, fused to T25 or T18 fragments of an adenylate cyclase (from UniProt Q2G185 1-444) (natural protein)” yielded a β-galactosidase activity (two-hybrid signal) greater than 2000 Miller Units.
